Assay: yeast display, Sf9 membrane polyspecificity reagent, FACS + sequencing; frameworks hold sequencing errors
How it was run: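 After 36–48 hours of galactose induction, yeast (Saccharomyces cerevisiae BJ5465) displaying a synthetic nanobody library were stained at 4 °C for 1 hour with 10% biotinylated, detergent-solubilized Sf9 membrane reagent. Streptavidin microbeads enriched the stained cells before FACS sorting into low and high (top ~1%) gates on anti-HA and streptavidin fluorescence. Each clone's polyreactivity label reflects its gate of origin.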
With “QVQLVESGGGLVQAGGSLRLSCAASGFIFRRNAMGWYRQAPGKERELVAAISRSGGRTYYADSVKGRFTISRDNAKNTVYLQMNSLKPEDTAVYYCAAEYTDKYEYWGQGTQVTVSS” the “polyreactivity (PSR sort gate)” value was “high polyreactivity”.
For “QVQLVESGGGLVQAGGSLRLSCAASGFIFRRYAMGWYRQAPGKERDLVAAIRSDRSTNYADSVKGRFTISLDNAKNTVYLQMNSLKPEDTAVYYCARPYRSHYGWGVRGFDYWGQGTQVTVSS”, the “polyreactivity (PSR sort gate)” value was “high polyreactivity”.
With “QVQLVESGGGLVQAGGSLRLSCAASGFIFRRYAMGWYRQAPGKERELVAAISWRSGSTYYADSVKGRFTISRDNAKNTVYLQMNSLKPEDTAVYYCAAKDQATYQLNYWGQGTQVTVSS” the “polyreactivity (PSR sort gate)” value was “high polyreactivity”.
With “QVQLVESGGGLVQAGGSLRLSCAASGFIFRSYAMGWYRPAPGKERELVAAITKSGGRTYYADSVKGRFTISRDNAKNTVYLQMNSLKPEDTAVYYCAADQTSYSTSRRYDYWGQGTQVTVSS” the “polyreactivity (PSR sort gate)” value was “high polyreactivity”.
With “QVQLVESGGGLVQAGGSLRLSCAASGFIFRSYAMGWYRQAPGKERELVAAITSGGRTFYADSVKGRFTISRDNAKNTVYLQMNSLKPEDTAVYYCAAGGYRTGFNYWGQGTQVTVSS” the “polyreactivity (PSR sort gate)” value was “high polyreactivity”.
In the case of “QVQLVESGGGLVQAGGSLRLSCAASGFIFRTYAMGWYRQAPGKEREFVAAISSGSSTYYADSEKGRFTISRDNANNSVYLQMISLKPEDTAVYYCAARVPQQSRTWRGSTRSYRYGYWGQGTQVTVSS”, the “polyreactivity (PSR sort gate)” value was “high polyreactivity”.
In the case of “QVQLVESGGGLVQAGGSLRLSCAASGFIFRTYAMGWYRQAPGTERELVATITGDGSTNYADSVKGRFTISRDNAKNTVYLQMNSLKPEDTAVYYCSRDDRLAGDYWGQGTQVTVSS”, the “polyreactivity (PSR sort gate)” value was “low polyreactivity”.
In the case of “QVQLVESGGGLVQAGGSLRLSCAASGFIFRVNAMGWYRQAPGKEREFVAAITYSGGRTSYADSVKGRFTISRDNAKNTVYLQMNSLKPEDTAVYYCAALLYKPSVHAKYYYWGQGTQVTVSS”, the “polyreactivity (PSR sort gate)” value was “high polyreactivity”.
With “QVQLVESGGGLVQAGGSLRLSCAASGFIFRYAMGWYRQAPGKERELVAAISSSGGSTNYADSVKGRFTISRDNAKNTVYLQMNSLKPEDTAVYYCAARDGRQPRGYRLVTYYAPMYYWGQGTQVTVSS” the “polyreactivity (PSR sort gate)” value was “high polyreactivity”.
For “QVQLVESGGGLVQAGGSLRLSCAASGFIFRYNAMAWYRQAPGKERELVAAIDSGGSTYYADSVKGRFTISRDNAKNTVYLQMNSMKPEDNAVYYCNAVVEASYPCVDYWGQGTQVTVSS”, the “polyreactivity (PSR sort gate)” value was “low polyreactivity”.
For “QVQLVESGGGLVQAGGSLRLSCAASGFIFRYYAMGRYRQAPGKERELVAAISYSGGSTYYADSVKGRFTFSRDNAKNTVYLQINSMKPEDTAVYYCAKYTTSVYKQSLQQGYDYWGQGTQVSVSS”, the “polyreactivity (PSR sort gate)” value was “high polyreactivity”.
In the case of “QVQLVESGGGLVQAGGSLRLSCAASGFIFRYYAMGWYRQAPGKEREFVAAISRSGSSTYYADSVKGRFTISRDNAKNTVYLQMNSLKPEDTAVYYCNARKYRKGYGYWGQGTQVTVSS”, the “polyreactivity (PSR sort gate)” value was “high polyreactivity”.
With “QVQLVESGGGLVQAGGSLRLSCAASGFIFRYYAMGWYRQAPGKERELVAAISGNGGNTYYADSVKGRFTISRDNAKNTVYLQMNSLKPEDTAVYNCNRAPGYRGGRYDYWGQGTQVTVSS” the “polyreactivity (PSR sort gate)” value was “high polyreactivity”.
In the case of “QVQLVESGGGLVQAGGSLRLSCAASGFIFRYYAMGWYRQAPGKERELVAAISGSGGGTYYADSVKGRFTISRDNAKNTVYLQMNSLKPEDTAVYYCAAGSTSGYFRYYYWGQGSQVTVSS”, the “polyreactivity (PSR sort gate)” value was “high polyreactivity”.
In the case of “QVQLVESGGGLVQAGGSLRLSCAASGFIFRYYAMGWYRQAPGKERELVAAISRSGGSTYYADSVKGRFTISRDNAKNTVYLQMNSLKPEDTAVYYCNKDPRGRIPVPGTWIMDYWGQGTQVTVSS”, the “polyreactivity (PSR sort gate)” value was “high polyreactivity”.
In the case of “QVQLVESGGGLVQAGGSLRLSCAASGFIFRYYAMGWYRQAPGKERELVAAISSSGGCTYYADSVKGRFTISRDNSKNTVYLLMNRMKPEDTAVYFCAARDLRKLFSLYPYYYWGQGTHVTVSS”, the “polyreactivity (PSR sort gate)” value was “high polyreactivity”.
For “QVQLVESGGGLVQAGGSLRLSCAASGFIFRYYAMGWYRQAPGKERELVAAISWSGGSTYYADSVKGRFTISRDNAKNTVYLQMNSLKPEDTAVYYCNAVTTYGEYDYWGQGTQVTVSS”, the “polyreactivity (PSR sort gate)” value was “high polyreactivity”.
In the case of “QVQLVESGGGLVQAGGSLRLSCAASGFIFRYYAMGWYRQAPGKERELVAAISYSGGYTYYADSVKGRFTISRDNAKNTVYLQMNSLKPEDTAVYYCAAVLRTRDHPQPNYEYWGQGTQVTVSS”, the “polyreactivity (PSR sort gate)” value was “high polyreactivity”.
For “QVQLVESGGGLVQAGGSLRLSCAASGFIFRYYAMGWYRQAPGKERELVAAITNSGVSTYYADSVKGRFTISRDNAKNTVYLQMNSLKPEDTAVYYCAATYRTRTSQYDYWGQGTQVTVSS”, the “polyreactivity (PSR sort gate)” value was “high polyreactivity”.
In the case of “QVQLVESGGGLVQAGGSLRLSCAASGFIFRYYAMGWYRQAPGKERELVATISSGGGTHYADSVKGRFTISRDNAKNTVYLQMNCLKPEDTAVYYCNKVSYRRRSVLLHYDYWGQGTQVTVSS”, the “polyreactivity (PSR sort gate)” value was “high polyreactivity”.
With “QVQLVESGGGLVQAGGSLRLSCAASGFIFRYYAMGWYRQAPWKERELVASITRSGGRTYYADSVKGRFTISRDNAKNTVYLQMNSLKPEDTAVYYCAARHYRSEYEYDYWGQGTQVTVSS” the “polyreactivity (PSR sort gate)” value was “high polyreactivity”.
In the case of “QVQLVESGGGLVQAGGSLRLSCAASGFIFRYYARGWYRQGPGKERELVAAIDESGGSTYYADSVKGSFTISRDNSKKTVYLQMNSLKAVDTEVYYCAAYSNFYLNYGYGYWGQVTQVTVSS”, the “polyreactivity (PSR sort gate)” value was “high polyreactivity”.
For “QVQLVESGGGLVQAGGSLRLSCAASGFIFRYYTMGWYRQAPGKERELVATITSGGSTYYADSVKGRFTISRDNAKNTVYVQMNSLKPEDTAVYYCAKVRDVLWRFNYWGQGTQVTVSS”, the “polyreactivity (PSR sort gate)” value was “high polyreactivity”.
In the case of “QVQLVESGGGLVQAGGSLRLSCAASGFIFSANAMGWYRQAPGKERELVAVISWNGDGTYYADSVKGRFTISRDNAKNTVYLQMNSLKAEDTAVYYCAALSYAYRSQSRRYGYRFDYWGQGTQVTVSS”, the “polyreactivity (PSR sort gate)” value was “high polyreactivity”.
In the case of “QVQLVESGGGLVQAGGSLRLSCAASGFIFSAYVMGWYRQAPGKERELVAAISQSGARTYYADSVKGRFTISRDNAKNTVYLQMNSLKPEDTAVYYCAADRRDFRTYDYWGQGTQVTVSS”, the “polyreactivity (PSR sort gate)” value was “high polyreactivity”.
With “QVQLVESGGGLVQAGGSLRLSCAASGFIFSCYAMGWYRQAPGKERELFAAISSSGVSTYYADSVKGRFTISRDNAKNTVYLHMNSLKPEDTAVNYCNAYGSVWDRGEYDYEYWGQGTQVTVSS” the “polyreactivity (PSR sort gate)” value was “low polyreactivity”.
With “QVQLVESGGGLVQAGGSLRLSCAASGFIFSDNAMGWYRQAPGKERELVSAITDDGDTTYYADSVKGRFTISRDNAKNTVYLQMNSLKPEDTAVYYCATEIEDDESSGPYYYVGYGYWGQGTQVTVSS” the “polyreactivity (PSR sort gate)” value was “high polyreactivity”.
For “QVQLVESGGGLVQAGGSLRLSCAASGFIFSGNAMGWYRQAPGKERELVATITTGGTTKYADSVKGRFTISRDNAKNTVYLQMNSLKPEDTAVYYFAKSWSYWYQYYYWGQGTQVTVSS”, the “polyreactivity (PSR sort gate)” value was “low polyreactivity”.
With “QVQLVESGGGLVQAGGSLRLSCAASGFIFSGYAMGWSRQAPGKERELVAAITWSGSNTFYADSVKGRFTISRDNAKNTVYLQMNSLKPEDTAVYYCNAVSKYKRSDYYYWGQGTQVTVSS” the “polyreactivity (PSR sort gate)” value was “high polyreactivity”.
With “QVQLVESGGGLVQAGGSLRLSCAASGFIFSGYAMGWYRQAPGKEREFVAAISWSGSSTYYADSVKGRFTISRDNAKNTVYLQMNSLKPEDTALYYCNAVRQHPPRYSRYDYWGQGTQVTVSS” the “polyreactivity (PSR sort gate)” value was “high polyreactivity”.
For “QVQLVESGGGLVQAGGSLRLSCAASGFIFSGYAMGWYRQAPGKERELVATISGSGGSTYYADSVKGRFTISRDNAKNTVYLQMNSLKPEDTAVYYCAARQRGGYGYWGQGTQVTVSS”, the “polyreactivity (PSR sort gate)” value was “high polyreactivity”.
For “QVQLVESGGGLVQAGGSLRLSCAASGFIFSGYAMGWYRQAPGKERELVATISGSGGSTYYADSVKGRFTISRDNAKNTVYLQMNSLKPEDTAVYYCAKRSIVGYRYSGYDYWGQGTQVTVSS”, the “polyreactivity (PSR sort gate)” value was “high polyreactivity”.
With “QVQLVESGGGLVQAGGSLRLSCAASGFIFSGYAMGWYRQAPGKEWELVAAISRRGGSTYYADSVKGRFTISRDNAKNTVYLQMNSLKPEDTAVYYCARTTRGSYGKFYYWGQGTQVTVSS” the “polyreactivity (PSR sort gate)” value was “high polyreactivity”.
In the case of “QVQLVESGGGLVQAGGSLRLSCAASGFIFSHYTMGWYRQAPGKERELVAGISWSGGNTYYADSVKGRFTISRDNAKNTVYLQMISLKPEDTAVYYCNADWIGVPLAYDYWGQGTQVTVSS”, the “polyreactivity (PSR sort gate)” value was “low polyreactivity”.
For “QVQLVESGGGLVQAGGSLRLSCAASGFIFSINAMGWYRQAPGKERELVADIDTGGSTNYADSVKGRFTISRDNAKNTVYLQMNSLKPEDTAVYYCAAQWYQYPSYISYFTSYDYWGQGTQVTVSS”, the “polyreactivity (PSR sort gate)” value was “low polyreactivity”.
With “QVQLVESGGGLVQAGGSLRLSCAASGFIFSIYTMGWYRQAPGKERELVAAISWSGGSTYYADSVKGRFTISRDNAKNTVYLQMNSLKPEDTAVYYCNRVQFSPVYRFREYDYWGQGSQVTVSS” the “polyreactivity (PSR sort gate)” value was “high polyreactivity”.
With “QVQLVESGGGLVQAGGSLRLSCAASGFIFSKNVMGWYRQAPGKERELVARITRSGGTTYYADSVKGRFTISRDNAKNTVYLQMNSLKPEDTAVYYCAARRYGSTSISWYDYWGQGTQVTVSS” the “polyreactivity (PSR sort gate)” value was “high polyreactivity”.
For “QVQLVESGGGLVQAGGSLRLSCAASGFIFSKYARGCYRQAPGKEGELVAAITFSGGSTYYADSVKGRFTISRDNAKNTVYLQMHSLKPEDTAVYYCNAEGSYPDVSPVLGYDYWGQGTQVTVSS”, the “polyreactivity (PSR sort gate)” value was “low polyreactivity”.
In the case of “QVQLVESGGGLVQAGGSLRLSCAASGFIFSKYTMGWYRQAPGKETELVAAISSGGRTYYADSVKGRFTISRDNAKNTVYLQMNSLKPEDTAVYYCAVRGYIASQQAAGGGRNYYYWGQGTQVNVSS”, the “polyreactivity (PSR sort gate)” value was “high polyreactivity”.
With “QVQLVESGGGLVQAGGSLRLSCAASGFIFSKYVMGWSRQAPGKERELVAAITRSGSSTYYADSVKGRFTISRDNAKNTVYLQMNSLKPEDTAVYYCAADGGYYDDDYWGQGTQVTVSS” the “polyreactivity (PSR sort gate)” value was “high polyreactivity”.
With “QVQLVESGGGLVQAGGSLRLSCAASGFIFSLYAMGWYRQAPGKERELVAGISESGGSTYYADSVKGRFTISRDNAKNTVYLQMNSLKPEDTAVYYCNADDTVYFIKAGDYWGQGTQVTVSS” the “polyreactivity (PSR sort gate)” value was “high polyreactivity”.
In the case of “QVQLVESGGGLVQAGGSLRLSCAASGFIFSNNAMGWYRQAPGKERELVAAISGRGGSTYYADSVKGRFTISRDNAKNTVYLQMNSLKPEDTAVYYCNALYTYSYSRFDYWGQGTQVTVSS”, the “polyreactivity (PSR sort gate)” value was “low polyreactivity”.
For “QVQLVESGGGLVQAGGSLRLSCAASGFIFSNNAMGWYRQAPGKERELVAVINGGGSTYYADSVKGRFTISRDNAKNTVYLQMNSLKPEDTAVYYCARKSWPKERRVDPGYDYWGQGTQVTVSS”, the “polyreactivity (PSR sort gate)” value was “low polyreactivity”.
